The labels stand for the following.
B1: His-tagged recombinant spermine synthase (SPMS) (enzyme, Arabidopsis thaliana, UniProt Q94BN2 1-359, looked up)
chain: MEGDVGIGLVCQNTMDGKASNGNGLEKTVPSCCLKAMACVPEDDAKCHSTVVSGWFSEPHPRSGKKGGKAVYFNNPMWPGEAHSLKVEKVLFKDKSDFQEVLVFESATYGKVLVLDGIVQLTEKDECAYQEMIAHLPLCSISSPKNVLVVGGGDGGVLREISRHSSVEVIDICEIDKMVIDVSKKFFPELAVGFDDPRVQLHIGDAAEFLRKSPEGKYDAIIVDSSDPVGPALALVEKPFFETLARALKPGGVLCNMAESMWLHTHLIEDMISICRQTFKSVHYAWSSVPTYPSGVIGFVLCSTEGPAVDFKNPINPIEKLDGAMTHKRELKFYNSDMHRAAFALPTFLRREVASLLAS
notes: Arabidopsis spermine synthase (SPMS, At5g53120); The Protease 3C site lies before the start ATG, and no cleavage is reported; The insert has no stop codon, so a C-terminal extension from the vector is likely (surmised); also called recombinant His-tagged aminopropyltransferase
B2: His-tagged recombinant spermidine synthase 2 (SPDS2) (enzyme, Arabidopsis thaliana, UniProt O48661 1-340, looked up)
chain: MSSTQEASVTDLPVKRPREAEEDNNGGAMETENGGGEIKEPSCMSSIIPGWFSEISPMWPGEAHSLKVEKILFQGKSDYQDVIVFQSATYGKVLVLDGVIQLTERDECAYQEMITHLPLCSISNPKKVLVIGGGDGGVLREVARHSSVEQIDICEIDKMVVDVAKQYFPNVAVGYEDPRVNLIIGDGVAFLKNAAEGTYDAVIVDSSDPIGPAKELFEKPFFESVNRALRPGGVVCTQAESLWLHMDIIEDIVSNCRDIFKGSVNYAWTSVPTYPSGVIGFMLCSSEGPQVDFKKPVSLIDTDESSIKSHCPLKYYNAEIHSAAFCLPSFAKKVIDSKAN
notes: Arabidopsis spermidine synthase 2 (SPDS2, At1g70310); The Protease 3C site lies before the start ATG, and no cleavage is reported; The insert has no stop codon, so a C-terminal extension from the vector is likely (surmised); also called recombinant His-tagged aminopropyltransferase
B3: His-tagged recombinant spermidine synthase 1 (SPDS1) (enzyme, Arabidopsis thaliana, UniProt Q9ZUB3 1-334, looked up)
chain: MDAKETSATDLKRPREEDDNGGAATMETENGDQKKEPACFSTVIPGWFSEMSPMWPGEAHSLKVEKVLFQGKSDYQDVIVFQSATYGKVLVLDGVIQLTERDECAYQEMITHLPLCSIPNPKKVLVIGGGDGGVLREVARHASIEQIDMCEIDKMVVDVSKQFFPDVAIGYEDPRVNLVIGDGVAFLKNAAEGSYDAVIVDSSDPIGPAKELFEKPFFQSVARALRPGGVVCTQAESLWLHMDIIEDIVSNCREIFKGSVNYAWTSVPTYPSGVIGFMLCSTEGPDVDFKHPLNPIDESSSKSNGPLKFYNAEIHSAAFCLPSFAKKVIESKAN
notes: Arabidopsis spermidine synthase 1 (SPDS1, At1g23820); The insert has no stop codon, so a C-terminal extension from the vector is likely (surmised); also called recombinant His-tagged aminopropyltransferase

This data set deals with the molecule itself. The data set is described as follows: SEC; 50 to 100 µg of each affinity purified His-tagged enzyme alone on Superdex 200 10/300 GL, 0.2 mL/min, 20 mM Tris-HCl pH 7.6, 150 mM NaCl; fractions followed by absorbance at 280 nm. On the technique in general: In gel filtration, larger molecules generally elute earlier.
What is called stoichiometry N is a count of units in the complex or per binding partner. Turning to B1, the “stoichiometry N” value turned out to be 2.

In the case of B2, the “stoichiometry N” value turned out to be 2.

As to B3, the “stoichiometry N” value is 2.

The record behind these values is paper PMC3466176, “Aminopropyltransferases Involved in Polyamine Biosynthesis Localize Preferentially in the Nucleus of Plant Cells” (PLoS ONE, 2012).
